From patent US5985836A, “Alpha-1 proteinase inhibitor binding peptides” (Bayer Corporation, priority 1998, dated 1999)
One block for each substance: values may come before it. Ends that are not written are not given here.

Legend:
A1PI [1] = biological target: T1, A1PI (Homo sapiens, UniProt P01009); assay: A1PI purification from 5 mg hSA + 1 mg A1PI on peptide column, A1PI mass balance; format: binding; conditions: A1PI, 5 mg hSA + 1 mg A1PI
T1 construct: Human plasma is currently the only approved source of therapeutic AlPI
Protocol: (§1) Confirmatory binding assays were performed in a column chromatographic format on a microbore HPLC using individual peptide sequences synthesized directly onto the Toyopearl 650 M Chelate resin which had been modified with Totda followed by an alanine residue (A-Totda-Toyopearl), at a final substitution density of 0.1 mmole/g resin. The resin was packed into 0.4×5 cm columns (Thomson, Springfield, Va.) and tested on the Michrom HPLC system (Michrom BioResources, Auburn, Calif.). The elution program for all trials utilized the following method. The column was pre-equilibrated with equilibration buffer (as above). 1 ml of sample was injected and allowed sufficient time to flowthrough the column using equilibration buffer. The column was then washed with step elutions of 1M NaCl and 3M NaCl in equilibration buffer. The column was exposed to equilibration buffer with 0.1M NaCl. Any remaining protein was eluted with elution buffer (2% by volume glacial acetic acid in water).
(§2) A Gilson FC204 fraction collector at the HPLC outlet collected individual eluates for further analysis. Fractions collected from the 2% acetic acid eluates were neutralized with 2M Tris, pH 10.5 to bring the pH to neutrality. The protein samples were reconstituted in equilibration buffer unless otherwise stated. The samples were analyzed by the integration of the absorbance at 280 nm or by immunonephelometry. The specific method of determination is presented for each figure.
Columns were assayed with a mixture of 5 mg human serum albumin (hSA)+1 mg AlPI at 4° C. (Table 4, Seq. ID 1-11, 15, 17) and 20° C. (Table 5, Seq. ID 1-10, 13, 15, 17). The chromatography method was modified to provide for a 10 minute residence time of sample in the column by decreasing the flow to 17 μl/min (10 cm/hr) upon injection. Following the incubation, the flow was set at 865 μl/min (413 cm/hr) for the step elutions of 1M NaCl, 3M NaCl, and 2% acetic acid. The mass balances presented are based upon immunonephelometry. The Percent Eluted value is protein-specific and based on the amount of the protein eluted in a […]

A1PI [2] = biological target: T1, A1PI; assay: A1PI binding on peptide-resin column, injection of 1 mg A1PI in equilibration buffer; conditions: for Percent AlPI Eluted by Fraction, 1M NaCl / Percent AlPI Eluted by Fraction, 2% Acetic Acid / Percent AlPI Eluted by Fraction, Flowthrough: sequence order, 1 mg AlPI; for % of Total A1PI Eluted by Fraction (Based on Absorbance at 280 nm), 1M NaCl / % of Total A1PI Eluted by Fraction (Based on Absorbance at 280 nm), 2% Acetic Acid / % of Total A1PI Eluted by Fraction (Based on Absorbance at 280 nm), Flowthrough: 1 mg A1PI
Protocol: as §1, §2
Tables 2 and 3 present the elution profiles for 19 sequences based on the injection of 1 mg AlPI in equilibration buffer at 4° C. and 20° C., respectively. The columns were run at a constant flow rate of865 μl/min (413 cm/hr) or 523 μl/min (250 cm/hr). No dependence of the elution profile with flow rate was found. The Percent AlPI Eluted by Fraction represents the amount eluted in the flowthrough, 1M NaCl wash, and 2% acetic acid fractions relative to the total AlPI eluted. The percentages are based on either the integration of the peak areas at […]

[3] = 4° C., relative to total eluted
[4] = 20° C., * Below detection limit
[5] = 20° C., relative to total eluted
[6] = 1 mg A1PI in equilibration buffer, 4° C.
[7] = 1 mg A1PI in equilibration buffer, 20° C.
[8] = Table 19, 4° C., * Below detection limit
[9] = Table 19, 4° C., relative to total loaded
[10] = Table 19, 20° C., * Below detection limit
[11] = Table 19, 20° C., relative to total loaded

T1 sequence (P01009 25-418): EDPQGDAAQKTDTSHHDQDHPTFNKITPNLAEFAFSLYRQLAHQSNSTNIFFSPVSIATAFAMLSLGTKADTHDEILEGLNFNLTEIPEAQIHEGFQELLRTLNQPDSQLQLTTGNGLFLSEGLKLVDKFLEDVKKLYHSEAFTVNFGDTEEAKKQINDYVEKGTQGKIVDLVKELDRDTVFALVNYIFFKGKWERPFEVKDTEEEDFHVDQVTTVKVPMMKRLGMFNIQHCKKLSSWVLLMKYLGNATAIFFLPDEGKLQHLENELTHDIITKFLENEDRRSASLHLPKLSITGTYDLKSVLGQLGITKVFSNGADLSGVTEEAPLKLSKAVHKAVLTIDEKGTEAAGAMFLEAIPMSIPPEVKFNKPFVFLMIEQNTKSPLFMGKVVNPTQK

Substance: IWRKYS
Mass Protein per Eluate Fraction, 1M NaCl (A1PI [1]; 4° C., * Below detection limit): 0.68 mg
Mass Protein per Eluate Fraction, Flow (A1PI [1]; 4° C., * Below detection limit): 0.03 mg
Percent Eluted by Fraction, 1M NaCl (A1PI [1]; [3]): 96%
Percent Eluted by Fraction, 2% Ac. Acid (A1PI [1]; [3]): 0%
Percent Eluted by Fraction, 3M NaCl (A1PI [1]; [3]): 0%
Percent Eluted by Fraction, Flow (A1PI [1]; [3]): 4%
Mass Protein per Eluate Fraction, 1M NaCl (A1PI [1]; [4]): 0.58 mg
Mass Protein per Eluate Fraction, 2% Ac. Acid (A1PI [1]; [4]): 0.11 mg
Mass Protein per Eluate Fraction, 3M NaCl (A1PI [1]; [4]): 0.00 mg
Percent Eluted by Fraction, 1M NaCl (A1PI [1]; [5]): 83%
Percent Eluted by Fraction, 2% Ac. Acid (A1PI [1]; [5]): 17%
Percent Eluted by Fraction, 3M NaCl (A1PI [1]; [5]): 0%
Percent Eluted by Fraction, Flow (A1PI [1]; [5]): 0%
Percent A1PI Eluted by Fraction Based on Absorbance at 280 nm, 1M NaCl (A1PI [2]; [6]): 94%
Percent A1PI Eluted by Fraction Based on Absorbance at 280 nm, 2% Acetic Acid (A1PI [2]; [6]): 6%
Percent A1PI Eluted by Fraction Based on Absorbance at 280 nm, Flowthrough (A1PI [2]; [6]): 0%
Percent A1PI Eluted by Fraction, 1M NaCl (A1PI [2]; [7]): 81%
Percent A1PI Eluted by Fraction, 2% Acetic Acid (A1PI [2]; [7]): 19%
Percent A1PI Eluted by Fraction, Flowthrough (A1PI [2]; [7]): 0%

Substance: V I F A V R: point mutation of VIFLVR, position 4 (VIFAVR)
% of Total A1PI Eluted by Fraction (Based on Absorbance at 280 nm), 1M NaCl (A1PI [2]; VIFLVR point mutations, 4° C.): 46%
% of Total A1PI Eluted by Fraction (Based on Absorbance at 280 nm), 2% Acetic Acid (A1PI [2]; VIFLVR point mutations, 4° C.): 54%
% of Total A1PI Eluted by Fraction (Based on Absorbance at 280 nm), Flowthrough (A1PI [2]; VIFLVR point mutations, 4° C.): 0%
% of Total A1PI Eluted by Fraction (Based on Absorbance at 280 nm), 1M NaCl (A1PI [2]; VIFLVR point mutations, 20° C.): 11%
% of Total A1PI Eluted by Fraction (Based on Absorbance at 280 nm), 2% Acetic Acid (A1PI [2]; VIFLVR point mutations, 20° C.): 89%
% of Total A1PI Eluted by Fraction (Based on Absorbance at 280 nm), Flowthrough (A1PI [2]; VIFLVR point mutations, 20° C.): 0%

Substance: V I F L F R: point mutation of VIFLVR, position 5 (VIFLFR)
% of Total A1PI Eluted by Fraction (Based on Absorbance at 280 nm), 1M NaCl (A1PI [2]; VIFLVR point mutations, 4° C.): 3%
% of Total A1PI Eluted by Fraction (Based on Absorbance at 280 nm), 2% Acetic Acid (A1PI [2]; VIFLVR point mutations, 4° C.): 56%
% of Total A1PI Eluted by Fraction (Based on Absorbance at 280 nm), Flowthrough (A1PI [2]; VIFLVR point mutations, 4° C.): 40%

Substance: V I F L Y R: point mutation of VIFLVR, position 5 (VIFLYR)
% of Total A1PI Eluted by Fraction (Based on Absorbance at 280 nm), 1M NaCl (A1PI [2]; VIFLVR point mutations, 4° C.): 4%
% of Total A1PI Eluted by Fraction (Based on Absorbance at 280 nm), 2% Acetic Acid (A1PI [2]; VIFLVR point mutations, 4° C.): 40%
% of Total A1PI Eluted by Fraction (Based on Absorbance at 280 nm), Flowthrough (A1PI [2]; VIFLVR point mutations, 4° C.): 56%
% of Total A1PI Eluted by Fraction (Based on Absorbance at 280 nm), 1M NaCl (A1PI [2]; VIFLVR point mutations, 20° C.): 3%
% of Total A1PI Eluted by Fraction (Based on Absorbance at 280 nm), 2% Acetic Acid (A1PI [2]; VIFLVR point mutations, 20° C.): 20%
% of Total A1PI Eluted by Fraction (Based on Absorbance at 280 nm), Flowthrough (A1PI [2]; VIFLVR point mutations, 20° C.): 77%

The next lines start with the values.

Mass Protein per Eluate Fraction, 1M NaCl (A1PI [1]; [8]): 0.11 mg
Mass Protein per Eluate Fraction, 2% Acetic Acid (A1PI [1]; [8]): 0.25 mg
Mass Protein per Eluate Fraction, Flow (A1PI [1]; [8]): 0.48 mg
Percent Eluted by Fraction, 1M NaCl (A1PI [1]; [9]): 13%
Percent Eluted by Fraction, 2% Acetic Acid (A1PI [1]; [9]): 30%
Percent Eluted by Fraction, 3M NaCl (A1PI [1]; [9]): 0%
Percent Eluted by Fraction, Flow (A1PI [1]; [9]): 57%
Mass Protein per Eluate Fraction, 1M NaCl (A1PI [1]; [10]): 0.04 mg
Mass Protein per Eluate Fraction, 2% Acetic Acid (A1PI [1]; [10]): 0.54 mg
Mass Protein per Eluate Fraction, Flow (A1PI [1]; [10]): 0.22 mg
Percent Eluted by Fraction, 1M NaCl (A1PI [1]; [11]): 5%
Percent Eluted by Fraction, 2% Acetic Acid (A1PI [1]; [11]): 68%
Percent Eluted by Fraction, 3M NaCl (A1PI [1]; [11]): 0%
Percent Eluted by Fraction, Flow (A1PI [1]; [11]): 28%
binding of AlPI (in words) (A1PI [2]): excellent binding
Percent AlPI Eluted by Fraction, 1M NaCl (A1PI [2]; 4° C.): 27%
Percent AlPI Eluted by Fraction, 2% Acetic Acid (A1PI [2]; 4° C.): 65%
Percent AlPI Eluted by Fraction, Flowthrough (A1PI [2]; 4° C.): 8%
Percent AlPI Eluted by Fraction, 1M NaCl (A1PI [2]; 20° C.): 3%
Percent AlPI Eluted by Fraction, 2% Acetic Acid (A1PI [2]; 20° C.): 90%
Percent AlPI Eluted by Fraction, Flowthrough (A1PI [2]; 20° C.): 7%
Substance: RVLFIV: reversed sequence of VIFLVR

% of Total A1PI Eluted by Fraction (Based on Absorbance at 280 nm), 1M NaCl (A1PI [2]; Trp position mutations, 4° C.): 0%
% of Total A1PI Eluted by Fraction (Based on Absorbance at 280 nm), 2% Acetic Acid (A1PI [2]; Trp position mutations, 4° C.): 0%
% of Total A1PI Eluted by Fraction (Based on Absorbance at 280 nm), Flowthrough (A1PI [2]; Trp position mutations, 4° C.): 100%
% of Total A1PI Eluted by Fraction (Based on Absorbance at 280 nm), 1M NaCl (A1PI [2]; Trp position mutations, 20° C.): 0%
% of Total A1PI Eluted by Fraction (Based on Absorbance at 280 nm), 2% Acetic Acid (A1PI [2]; Trp position mutations, 20° C.): 16%
% of Total A1PI Eluted by Fraction (Based on Absorbance at 280 nm), Flowthrough (A1PI [2]; Trp position mutations, 20° C.): 84%
Substance: V I D L V R: VIWLVR with Trp at position 3 replaced by Asp (VIDLVR)

% of Total A1PI Eluted by Fraction (Based on Absorbance at 280 nm), 1M NaCl (A1PI [2]; VIFLVR point mutations, 4° C.): 25%
% of Total A1PI Eluted by Fraction (Based on Absorbance at 280 nm), 2% Acetic Acid (A1PI [2]; VIFLVR point mutations, 4° C.): 75%
% of Total A1PI Eluted by Fraction (Based on Absorbance at 280 nm), Flowthrough (A1PI [2]; VIFLVR point mutations, 4° C.): 0%
% of Total A1PI Eluted by Fraction (Based on Absorbance at 280 nm), 1M NaCl (A1PI [2]; VIFLVR point mutations, 20° C.): 0%
% of Total A1PI Eluted by Fraction (Based on Absorbance at 280 nm), 2% Acetic Acid (A1PI [2]; VIFLVR point mutations, 20° C.): 25%
% of Total A1PI Eluted by Fraction (Based on Absorbance at 280 nm), Flowthrough (A1PI [2]; VIFLVR point mutations, 20° C.): 75%
Substance: V I F L A R: point mutation of VIFLVR, position 5 (VIFLAR)
